Publication PMC7352912

Biological target: F-actin of ghost muscle fibres (rabbit (endogenous in m. psoas fibres)) (UniProt P68135)
Test: fluorescence intensity of labelled proteins bound in ghost muscle fibres; actin-Tpm-S1 complexes in ghost fibres; rigor (no nucleotide) or MgADP; with MgATP the ratio of S1 to actin was reduced
Conditions: for stoichiometry N: scale: actin per tropomyosin

Sequence of recombinant wild-type γ-tropomyosin (Tpm3.12) (natural protein) (Q5KR47 whole entry): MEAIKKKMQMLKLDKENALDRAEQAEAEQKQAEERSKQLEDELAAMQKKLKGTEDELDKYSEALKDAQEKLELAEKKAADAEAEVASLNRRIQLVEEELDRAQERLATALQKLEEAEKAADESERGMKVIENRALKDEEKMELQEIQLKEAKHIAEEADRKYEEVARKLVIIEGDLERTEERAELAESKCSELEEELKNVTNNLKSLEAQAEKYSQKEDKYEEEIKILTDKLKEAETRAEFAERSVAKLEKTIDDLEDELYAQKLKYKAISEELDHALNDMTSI
Sequence of myosin subfragment-1 (P02602 whole entry, looked up, the tested form may be a part): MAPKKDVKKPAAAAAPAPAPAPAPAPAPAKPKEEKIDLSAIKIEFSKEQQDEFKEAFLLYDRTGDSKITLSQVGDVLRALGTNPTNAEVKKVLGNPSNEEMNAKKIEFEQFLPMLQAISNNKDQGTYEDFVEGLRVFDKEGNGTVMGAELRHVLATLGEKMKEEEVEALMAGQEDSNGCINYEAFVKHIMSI

E173A mutant γ-tropomyosin (Tpm3.12) (natural protein)
stoichiometry N: 7

myosin subfragment-1 (from UniProt P02602 1-192) (complex)
stoichiometry N (actin per S1 (molar ratio 1:2.4)): 2.4

recombinant wild-type γ-tropomyosin (Tpm3.12) (natural protein)
stoichiometry N: 7
